Data reported in publication PMC6029366.

Biological target: M1R-TEV-tTA fusion protein

TANGO β-arrestin recruitment assay, luciferase reporter (RLU), HTLA cells treated with the muscarinic agonist carbachol: 7.4 fold
Substance: β-arrestin-TEV protease (from UniProt P32121 1-409) (natural protein)
